From US7833979B2, “Toxin peptide therapeutic agents” (Amgen Inc., priority 2005, dated 2010)

Columns and labels:
Kv1.3 [1] = target: T1, Kv1.3 (Homo sapiens, UniProt P22001); assay: IonWorks Quattro automated (population patch clamp) electrophysiology on CHO-Kv1.3 cells; assay type: cell-based; design: expressed in transfected cells; conditions: IonWorks planar patch clamp, average IC50, read-out: Kv1.3 IC50 by IWQ
Description: Assay Plate preparation for electrophysiology. […] Before experiments, each sample was thawed at room temperature and an aliquot (70 to 80 μl) was transferred to a well in a 96-well polypropylene plate. In order to prepare the Assay Plate, several dilutions were made from the pharmacokinetic serum samples to give rise to Test Solutions. Dilutions of serum samples from the pharmacokinetic study were into 10% Phosphate Buffered Saline (PBS, with Ca^2+ and Mg^2+). […] Standard inhibition curves were also prepared in the Assay Plate.
Cell preparation for electrophysiology. CHO cells stably expressing the voltage-activated K^+ channel, Kv1.3 were plated in T-175 tissue culture flasks (at a density of 5×10^6) 2 days before experimentation and allowed to grow to around 95% confluence. […] The mean K^+ current amplitude was measured between 430 and 440 ms and the data were exported to a Microsoft Excel spreadsheet. The amplitude of the K^+ current in the presence of each concentration of the Test Solution or Standard was expressed as a percentage of the K^+ current in control conditions in the same well.
Standard inhibition curves were generated for each standard in various levels of rat serum and expressed as current percent of control (POC) versus log of nM concentration. […]

[2] = target: HEK 293 cells overexpressing human Kv1.3 (Homo sapiens, UniProt P22001); assay: Immunohistochemistry analysis of binding to HEK 293 cells overexpressing human Kv1.3; conditions: 5 ug/ml, fixed cells, confocal microscopy
Description: HEK 293 cells overexpressing human Kv1.3 (HEK Kv1.3) were obtained from BioFocus plc (Cambridge, UK) and maintained per manufacturer's recommendation. The parental HEK 293 cell line was used as a control. Cells were plated on Poly-D-Lysine 24 well plates (#35-4414; Becton-Dickinson, Bedford, Mass.) and allowed to grow to approximately 70% confluence. HEK KV1.3 were plated at 0.5×10e5 cells/well in 1 ml/well of medium. HEK 293 cells were plated at a density of 1.5×10e5 cells/well in 1 ml/well of medium. […] Cells were stained by incubating with 0.2 ml/well of 5 ug/ml Fc-L10-ShK[1-35] in PBS/BSA for 30′ at room temperature. Fc-L10-ShK[1-35] was aspirated and then the cells were washed one time with PBS/0.5% BSA. Detection antibody (Goat F(ab)2 anti-human IgG-phycoerythrin; Southern Biotech Associates, Birmingham, Ala.) was added to the wells at 5 ug/ml in PBS/0.5% BSA and incubated for 30′ at room temperature. Wash cells once with PBS/0.5% BSA and examine using confocal microscopy (LSM 510 Meta Confocal Microscope; Carl Zeiss AG, Germany). […] In disease settings where activated T effector memory cells have been reported to overproduce Kv1.3, this reagent can find utility in both targeting these cells and in their detection.

[3] = tested on: IL-2 and IFNg production from PMA and anti-CD3 stimulated human PBMCs; assay: Inhibition of T cell cytokine production following PMA and anti-CD3 antibody stimulation of PBMCs; assay type: cell-based; conditions: 48 hr
Excerpt: Inhibition of T cell cytokine production following PMA and anti-CD3 antibody stimulation of PBMCs. PBMC's were previously isolated from normal human donor Leukophoresis packs, purified by density gradient centrifugation (Ficoll Hypaque), cryopreserved in CPZ Cryopreservation Medium Complete (INCELL, MCPZF-100 plus 10% DMSO final). PBMC's were thawed (95% viability), washed, and seeded at 2×10^5 cells per well in culture medium (RPMI medium 1640; GIBCO) supplemented with 10% fetal calf serum, 100 U/ml penicillin, […] streptomycin 2 mM L-glutamine, 100 uM non-essential amino acids, and 20 uM 2-ME) in 96-well flat-bottom tissue culture plates. Cells were pre-incubated with serially diluted (100 nM-0.001 nM final) ShK[1-35], Fc-L10-ShK[1-35] or fc control for 90 min before stimulating for 48 hr with PMA/anti-CD3 (1 ng/ml and 50 ng/ml, respectively) in a final assay volume of 200 ul. Analysis of the assay samples was performed using the Meso Scale Discovery (MSD) SECTOR™ Imager 6000 (Meso Scale Discovery, Gaithersbury, Md.) to measure the IL-2 and IFNg protein levels by utilizing electrochemiluminescence (ECL). […] For each well, 20 ul of Ruthenium-labeled detection antibodies (1 ug/ml final in Antibody Dilution Buffer; […], TNF, IFNγ) and 130 ul of 2×MSD Read Buffer added, final volume 150 ul. […] The plates were then read on the SECTOR™ Imager 6000. […]

[4] = target: fixed HEK 293 cells overexpressing Kv1.3 (Homo sapiens, UniProt P22001); conditions: whole cell immunoassay
Description: Parent HEK 293 cells or HEK Kv1.3 cells were plated at 3×10e4 cells/well in poly-D-Lysine coated ninety-six well plates (#35-4461; Becton-Dickinson, Bedford, Mass.). Cells were fixed with formalin (Sigma HT50-1-1 Formalin solution, diluted 1:1 with PBS/0.5% BSA before use) by removing cell growth medium, adding 0.2 ml/well formalin solution and incubating at room temperature for 25 minutes and then washing one time with 100 ul/well of PBS/0.5% BSA. Wells were blocked by addition of 0.3 ml/well of BSA blocker (50-61-00; KPL 10% BSA Diluent/Blocking Solution, diluted 1:1 with PBS; KPL, Gaithersburg, Md.) followed by incubation at room temperature, with shaking, for 3 hr. Plates were washed 2 times with 1×KP Wash Buffer (50-63-00; KPL). Samples were diluted in Dilution Buffer (PBS/0.5% Tween-20) or Dilution Buffer with 1% Male Lewis Rat Serum (RATSRM-M; Bioreclamation Inc., Hicksville, N.Y.) and 0.1 ml/well was added to blocked plates, incubating for 1 hr at room temperature with shaking. […] Absorbance was read at 450 nm on a Molecular Devices SpectroMax 340 (Sunnyvale, Calif.).
Whole cell immunoassay was performed as above with the following modifications. […] Absorbances were read at 405 nm after stopping reactions by addition of 0.1 ml/well of 1% SDS.

[5] = tested on: T cell proliferation in human PBMCs; assay: Inhibition of T cell proliferation (3H-thymidine incorporation) following anti-CD3 and anti-CD28 stimulation of PBMCs; assay type: cell-based; conditions: pre-incubation with anti-human CD32 blocking antibody
Excerpt: Inhibition of T cell proliferation following anti-CD3 and anti-CD28 antibody stimulation of PBMCs. PBMC's were previously isolated from normal human donor Leukophoresis packs, purified by density gradient centrifugation (Ficoll Hypaque), cryopreserved in CPZ Cryopreservation Medium Complete (INCELL, MCPZF-100 plus 10% DMSO final). PBMC's were thawed (95% viability), washed, and seeded at 2×10^5 cells per well in culture medium (RPMI medium 1640; GIBCO) supplemented with 10% fetal calf serum, 100 U/ml penicillin, […] streptomycin, 2 mM L-glutamine, 100 μM non-essential amino acids, and 20 μM 2-ME) in 96-well flat-bottom tissue culture plates. Cells were pre-incubated with either anti-human CD32 (FcyRII) blocking antibody (per manufacturers instructions EASY SEP Human Biotin Selection Kit #18553, StemCell Technologies Vancouver, BC) or Fc-L10-ShK (100 nM-0.001 nM final) for 45 min. Fc-L10-ShK (100 nM-0.001 nM final) was then added to the cells containing anti-human CD32 blocking antibody while medium was added to the cells containing Fc-L10-ShK. Both sets were incubated for an additional 45 min before stimulating for 48 hr with aCD3/aCD28 (0.2 ng/ml and 100 ng/ml, respectively). Final assay volume was 200 ul. […] Cells were then harvested onto glass fiber filters and radioactivity was measured in a B-scintillation counter.

[6] = tested on: IL-2 and IFNg production from anti-CD3 and anti-CD28 stimulated human PBMCs; assay: Inhibition of T cell cytokine production following anti-CD3 and anti-CD28 antibody stimulation of PBMCs; assay type: cell-based; conditions: 48 hours
Description: Inhibition of T cell cytokine production following Anti-CD3 and anti-CD28 antibody stimulation of PBMCs. PBMCs were previously isolated from normal human donor Leukopheresis packs, purified by density gradient centrifugation (Ficoll Hypaque), and cryopreserved using INCELL Freezing Medium. PBMCs were thawed (95% viability), washed, and seeded (in RPMI complete medium containing serum replacement, PSG) at 2×10^5 cells per well into 96-well flat bottom plates. Cells were pre-incubated with serially diluted (100 nM-0.003 nM final) ShK[1-35], Fc-L10-ShK[1-35], or Fc control for 1 hour before the addition of aCD3 and aCD28 (2.5 ng/mL and 100 ng/mL respectively) in a final assay volume of […]. Supernatants were collected after 48 hours, and analyzed using the Meso Scale Discovery (MSD) SECTOR™ Imager 6000 (Meso Scale Discovery, Gaithersbury, Md.) to measure the IL-2 and IFNg protein levels by utilizing electrochemiluminescence (ECL). […] of supernatant was added to the MSD multi-spot 96-well plates (each well containing IL-2, TNFa, and IFNg capture antibodies). The plates were sealed and incubated at room temperature on a plate shaker for 1 hour. Then […] of Ruthenium-labeled detection antibodies (1 ug/ml final of IL-2, TNFα, and IFNγ in Antibody Dilution Buffer) and […] of 2×MSD Read Buffer were added. The plates were sealed, covered with tin foil, and incubated at room temperature on a plate shaker for 1 hour. The plates were then read on the SECTOR™ Imager 6000. […] (POC=Percent Of Control of response in the absence of inhibitor).

Kv1.3 [7] = target: T1, Kv1.3; assay: Whole cell patch clamp electrophysiology on HEK293 cells stably expressing human Kv1.3; assay type: cell-based
[8] = tested on: upregulation of CD40L and IL-2R on CD4+ T cells in human whole blood; assay: Ex vivo human whole blood assay, thapsigargin-induced cell surface CD40L and IL-2R on T cells (FACS); assay type: cell-based; conditions: 24 hours

T1 sequence (P22001 whole entry): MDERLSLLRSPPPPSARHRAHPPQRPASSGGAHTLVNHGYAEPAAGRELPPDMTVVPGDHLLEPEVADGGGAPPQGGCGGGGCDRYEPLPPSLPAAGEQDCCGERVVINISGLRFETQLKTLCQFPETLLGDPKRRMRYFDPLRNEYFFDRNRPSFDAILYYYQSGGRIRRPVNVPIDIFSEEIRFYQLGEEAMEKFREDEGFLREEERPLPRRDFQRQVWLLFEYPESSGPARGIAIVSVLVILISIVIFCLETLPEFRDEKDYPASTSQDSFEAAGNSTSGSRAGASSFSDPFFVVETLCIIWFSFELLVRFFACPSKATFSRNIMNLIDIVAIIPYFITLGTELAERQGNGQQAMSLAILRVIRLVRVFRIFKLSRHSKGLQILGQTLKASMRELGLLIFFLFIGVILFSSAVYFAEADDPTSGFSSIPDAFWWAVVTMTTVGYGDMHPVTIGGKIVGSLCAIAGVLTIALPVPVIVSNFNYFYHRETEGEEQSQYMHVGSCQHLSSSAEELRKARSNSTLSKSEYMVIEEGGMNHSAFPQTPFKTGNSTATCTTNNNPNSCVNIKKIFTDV
Chain of HEK 293 cells overexpressing human Kv1.3 (P22001 whole entry): as above
Chain of fixed HEK 293 cells overexpressing Kv1.3 (P22001 whole entry): as above

Row | Substance | IC50 (Kv1.3 [1]) | Binding (staining) to Kv1.3 overexpressing HEK 293 cells [2] | Binding (staining) to untransfected HEK 293 cells [2] | Inhibition of IFNγ production [3] | Inhibition of IL-2 production [3] | Binding response on fixed HEK 293 cells overexpressing Kv1.3 [4] | Binding response on untransfected HEK 293 cells [4] | Effect of pre-blocking with anti-CD32 (FcR) blocking antibody on inhibition of T cell proliferation [5] | Inhibition of IFNg production [6] | Inhibition of IL-2 production [6] | IC50 (Kv1.3 [7]; HEK293 cells stably expressing human Kv1.3, mean±s.e.m., estimated, read-out: IC50, block of outward potassium current) | Blockade of human Kv1.3 current (in words) (Kv1.3 [7]; patch clamp electrophysiology) | Thapsigargin-induced upregulation of CD40L on T cells in human whole blood [8] | Thapsigargin-induced upregulation of the IL-2R on T cells in human whole blood [8]
1 | E. coli-derived ShK[2-35]-L-Fc | 4.9 nM |  |  |  |  |  |  |  |  |  |  |  |  | 
2 | Fc-L10-ShK[1-35]: Fc region of human IgG1 fused in-frame via L10 linker to Kv1.3 inhibitor peptide ShK[1-35]; SEQ ID NO: 78 |  | binds to Kv1.3 overexpressing HEK 293 cells | little binding to untransfected cells | potently inhibits IL-2 and IFNg production | potently inhibits IL-2 and IFNg production | dose-dependent increase in the peptibody binding | does not elicit a response from untransfected HEK 293 cells | little effect | nearly complete | nearly complete | 0.015 ± 0.002 nM | potently blocked human Kv1.3 | suppressed | suppressed
